According to patent US20060234293A1, “Polypeptide methods and means” (priority 2002, published 2006):

Biological target: T1, Biotinylated BRC Repeat 4 peptide (Bio-BRC4) (Homo sapiens, UniProt P51587)
T1 construct: host or cells: chemical synthesis for the peptide; E. coli BL21 Codon Plus for RAD51 F86E
Test: SPR binding assay of RAD51 F86E on BRC4 coupled-chip
Details: 5 μM in HBSEP, 60 seconds contact time; FIG. 9(a)
Experimental: Measurements were performed on the BIACORE X biosensor (BIACORE AB, Uppsala, Sweden). A continuous flow of de-gassed and 0.22 μm filtered HBSEP running buffer was employed at a constant temperature of 25° C.
Flow cells 1 and 2 of a pre-coated streptavidin Sensor chip SA were conditioned with three sequential 20 μl injections of 1 M NaCl, 50 mM NaOH at a flow rate of 20 μl/min.
Biotinylated BRC Repeat 4 peptide (Bio-BRC4) was immobilized to a level of 200 RU by affinity capture onto Flow cell 2 only. This was achieved by two 20 μl injections of 10 nM Bio-BRC4 in HBS-EP at a flow rate of 20 μl/min. Flow cell 1 represented a reference surface to correct for any refractive index variations and thus was not derivated. Flow cells 1 and 2 were both subsequently treated with three successive injections of 40 μl regeneration solution (10 mM Glycine pH 2.5) at a flow rate of 40 μl/min to ensure baseline stabilization.
The […] mutant RAD51 Phe86Glu (F86E) or Ala89Glu (A89E) protein in solution can then be run over the BRC repeat coupled-chip in a Biacore instrument (Biacore AB, Uppsala, Sweden) or other suitable measuring device for surface-plasmon resonance. Reference corrected data was analysed using BIAevalution software (3.2V) and sensorgrams plotted. […]

T1 sequence (P51587 1517-1551 limits assumed): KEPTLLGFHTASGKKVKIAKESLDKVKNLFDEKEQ
T1 sequence (Q06609 whole entry F86E partner): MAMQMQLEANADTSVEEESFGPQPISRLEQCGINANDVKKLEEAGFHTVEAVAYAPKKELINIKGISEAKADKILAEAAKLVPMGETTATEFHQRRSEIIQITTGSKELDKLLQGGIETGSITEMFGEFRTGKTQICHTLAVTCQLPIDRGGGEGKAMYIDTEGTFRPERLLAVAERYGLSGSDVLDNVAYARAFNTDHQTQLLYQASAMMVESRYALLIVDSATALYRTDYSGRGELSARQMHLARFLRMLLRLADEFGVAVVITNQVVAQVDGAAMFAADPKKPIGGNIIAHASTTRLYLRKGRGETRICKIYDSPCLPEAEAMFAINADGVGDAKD

B1: RAD51 F86E: non-oligomerising mutant RAD51 with Phe86 replaced by glutamic acid (protein, UniProt Q06609 2-339, looked up, variant F86E)
DNA repair protein RAD51 …: AMQMQLEANADTSVEEESFGPQPISRLEQCGINANDVKKLEEAGFHTVEAVAYAPKKELINIKGISEAKADKILAEAAKLVPMGETTATEFHQRRSEIIQITTGSKELDKLLQGGIETGSITEMFGEFRTGKTQICHTLAVTCQLPIDRGGGEGKAMYIDTEGTFRPERLLAVAERYGLSGSDVLDNVAYARAFNTDHQTQLLYQASAMMVESRYALLIVDSATALYRTDYSGRGELSARQMHLARFLRMLLRLADEFGVAVVITNQVVAQVDGAAMFAADPKKPIGGNIIAHASTTRLYLRKGRGETRICKIYDSPCLPEAEAMFAINADGVGDAKD
binding to the BRC4 coupled-chip: binding can easily be detected
